Reference: the DeepSol protein solubility set

test: soluble on expression in E. coli; label from the status in PepcDB or PDB records

Row | Sequence | soluble on expression in E. coli
1 | MDPRQFEHTVVADNDIHSIVMSYLLHNCFNETADSLASSTGVKQPAIDRDNMERRKQIIHFILERKALKAFELTEQLAQDLLEKNKDLQFDLLCLHFVELICAGNCTEALKFGKTRLAPFGKVKKYVEKLEDVMALLAYEDPEKSPMFHLLSSEYRQQVADNLNRTILEHTNHPSYTPMERIIQQVTVVRQYLTEENGKDAFPPFSLKDSLKG | soluble
2 | MDQIFNKVGSYWLGQKANKQFDSVGNDLNSVSTSIEGGTKWLVNKIKGKMQKPLPELLKEYDLPIGIFPGDATNYEFDEETKKLTVLIPSICEVGYKDSSVLKFTTTVTGHLEKGKLTDVEGIKTKVMIWVKVTSISTDASKVYFTAGMKKSRSRDAYEVQRNGLRVDKF | soluble
3 | MDREAFVQTLTACRLCPRLVAWREEVVGRKRAFRGEPYWARPVPGFGDPEARILLFGLAPGAHGSNRTGRPFTGDASGAFLYPLLHEAGLSSKPESLPGDDLRLYGVYLTAAVRCAPPKNKPTPEELRACARWTEVELGLLPEVRVYVALGRIALEALLAHFGLRKSAHPFRHGAHYPLPGGRHLLASYHVSRQNTQTGRLTREMFLEVLMEAKRLAGL | soluble
4 | MDRLGSFSNDPSDKPPCRGCSSYLMEPYIKCAECGPPPFFLCLQCFTRGFEYKKHQSDHTYEIMTSDFPVLDPSWTAQEEMALLEAVMDCGFGNWQDVANQMCTKTKEECEKHYMKYFINNPLFASTLLNLKQAEEAKTADTAIPFHSTDDPPRPTFDSLLSRDMAGYMPARADFIEEFDNYAEWDLRDIDFVEDDSDILHALKMAVVDIYHSRLKERQRRKKIIRDHGLINLRKFQLMERRYPKEVQDLYETMRRFARIVGPVEHDKFIESHACRWFLSLEQYLCVYIYINRRDNGVFYVKFYK | soluble
5 | MDSQLSNRLAQVAAYVPKGVKLLDVGSDHAYLPIFLVETNQISAAIAGEVVRGPYESALKNVTQSGLAEHIQVRLANGLAAFEEADDVTAITICGMGGRLIADILEAGKEKLQGIERLVLQPNNREDDLRAWLSVNAFKIVAETIMAENDKYYEIIVAEHGEKALSATELRFGPYLSQEKSVVFKEKWQREMDKLAYALSCIPEEKTQERQLLLTKIQQIKEVIVHES | not soluble
6 | MDSRTKGKTVMEVGGDGVAVITLINPPVNSLSFDVLYNLKSNYEEALSRNDVKAIVITGAKGRFSGGFDISGFGEMQKGNVKEPKAGYISIDIITDLLEAARKPSVAAIDGLALGGGLELAMACHARISAPAAQLGLPELQLGVIPGFGGTQRLPRLVGLTKALEMILTSKPVKAEEGHSLGLIDAVVPPAELVTTARRWALDIVGRRKPWVSSVSKTDKLPPLGEAREILTFAKAQTLKRAPNMKHPLMCLDAIEVGIVSGPRAGLEKEAEVASQVVKLDTTKGLIHVFFSQRGTAKVPGVTDRGLVPRKIKKVAIIGGGLMGSGIATALILSNYPVILKEVNEKFLEAGIGRVKANLQSRVRKGSMSQEKFEKTMSLLKGSLDYESFRDVDMVIEAVIENISLKQQIFADLEKYCPQHCILASNTSTIDLNKIGERTKSQDRIVGAHFFSPAHIMPLLEIVRTNHTSAQVIVDLLDVGKKIKKTPVVVGNCTGFAVNRMFFPYTQAAMFLVECGADPYLIDRAISKFGMPMGPFRLCDLVGFGVAIATATQFIENFSERTYKSMIIPLMQEDKRAGEATRKGFYLYDDKRKAKPDPELKKYIEKARSISGVKLDPKLANLSEKDIIEMTFFPVVNEACRVFAEGIAVKAADLDIAGIMGMGFPPYRGGIMFWADSIGSKYIYSRLDEWSKAYGEFFKPCAFLAERGSKGVLLSAPVKQASSRL | soluble
7 | MDTLDELLPREKMLRSGIASLSDVELLALFLRTGTPGKDVMTLAKEILQHFGSLYGLLSADFAQFRGVNGIGLAKFAQLKGIAELARRYYSVRMNEESALLSPEMTREFLQSQLTGEEREIFLVIFLDAQHRVLQHSRLFSGTLNHVEVHPREIVREAIKLNASAVILAHNHPSGCAEPSKADKLITERVIKCCQFMDIRVLDHLIIGRGEYVSFAERGWI | not soluble
8 | MDTLFSLKVFRQVVQSGGFTRAADALGISTAMASKHVSHLENTVQAKLLHRNSRNLSLTEAGEEYYRQCSYALDTLDDAAQKAAGGTEKPQGLLRVTMPLWFAGSQICNWLAEYRERYPEVALELILDNRHVDLIAEGVDLALRVSQTLSPSLIARPLAEIEFALLASPDFLRRNGVPETPEEVAGLPAVLPTYTNQQKLDLTRKSDGKKYRLELTPVIRTDNTLMMREMIKAGACIGYQPLWAAEHDLRCGTLVRLLPGYAVPTDRLNAVYADRAFLSAKVRSFIDFLNEKIASRKGCRNAV | not soluble
9 | MDTMSQILKLLEKTDSIEINEFRMDVDELELTIMPTLQNVVQKVVEKQIEAKKEFESQIEFKYPVKDYAGKVNEVKLGGKNRKTVKLGGQTSLYRFEEPQPNAPTVTFDVFDIPMNGLPRPIKENFEDVMHSPGEWAQKAVKEFGADMITLHLIGTDPKVKDKSLKDAAKDLEEVLQAVKVPLVIGGSGNPKKDPLVLEMAAEVADGERCLLASANLDLDYQKIAQAAVKHDHAVLSWAISDINMQKVLNKALMKEGLTANDIVMDPTTCALGYGIEFSIDVMTRTRLSALKGDEILQMPMSSGTTNAWGSREAWMKKDEWGPTKYRGPIWEVVTGLTMMLCGVDIFMMLHPLSVKTLKEIGTTLTYEYKSKESQDISDWINKF | not soluble
10 | MDVFELTKKTLLAVISESSSSDDYLEALAEIEGLVKHEAAATSFQLMERGKVRELAVPKPEFYNKRRKFEDFQEKTVFDWKSEFNLKNAKKVERWTVEEKEKREKQRCFIEVEHYKKKEYLNFLYPGVHYCTCPYFQSTVLQKQTNWICVHILAYYFAKNFGKIERIECKSEIVGLVKKIFIRSIFLEEKK | not soluble
11 | MDVIREYLMFNELSALSSSPESVRSRFSSIYGTNPDGIALNNETYFNAVKPPITAQYGYYCYKNVGTVQYVNRPTDINPNVILAQDTLTNNTNEPFTTTITITGSFTNTSTVTSSTTTGFKFTSKLSIKKVFEIGGEVSFSTTIGTSETTTETITVSKSVTVTVPAQSRRTIQLTAKIAKESADFSAPITVDGYFGANFPKRVGPGGHYFWFNPARDVLNTTSGTLRGTVTNVSSFDFQTIVQPARSLLDEQ | soluble
12 | MDVKLLAHTQLSEEFVNYLSVVFGIGDEGFDPTHGQVVALSAIRTCYSPNKPSRIVSLEGEKYFKGKATDGKGGKEVDRLIRHIVGSGHASTLEHLTYTFAVEGVSRALLAQLTRHRVGFSYSVQSQRYVRMGSNDKIGGFDYVVPETVKAKGEQVVNAYNEMMYKLQSGYDLLRTLGIPAEDARSVLPNAAATNLVLTVNLRGLLDFYNKRRKGKGAQAEIAELAEQLRQEVVKVEKWVDEFFWKWKVTEV | not soluble
13 | MDVLGALKYFRKKKKIAQKDVLPKKGKQTYRRIEIGEAKLSYEDLMTALQSLGITFNEFFFMVSDTRIMASSEVKHQIECCQMGLNNTSEKKNLIHYFYQLERNPHKNALEMSIYTDIKLTFSNDWEEIPEFDETDRMVILALISSKSYYTYYDYQMVTNPAALFSENEVLQILEQMFPVKDAELRDTQTLNVAYGFYLNIITGELYKKNYAKAREYLALVSVTTIPAEIYYIHFNLRYLKNLTYYLYTGKMRYYKEVIAVIDMIESFGDARLAEGMKKEMLQLTAGRTFNLEKGQFPLNIVTEK | not soluble
14 | MDYWEWKTDGAGLEADEVCITVQHGVTLYDKNEKTQRQNGKLSLTTHHLRYNDEADISTVLQLPLELVRRSGQAPSISSGFGPFSSAKIIVPLPKNAYVKLSFRSGGVDNFYAALVGALKKKTWLQTKTEAAASGRGSSSGASPASTTPVPNSRPPPPVPRGFGIAGVQQASLQSAAMSETLKDIDDVMNKASKLVNNIRRLRERSEAAAAAGSDAGSETAVERTTIESIESTLGLGAIVTRNHSNGSDSRFYRDLAVEMHTWMTHECNSKLFNDMPVVPLIELFALYNKARGGDLVSPLDVLNACTYMAAKMSSSCYDLVTLPSGRKALVNRDDSLLLAKLTTVLGPQLVNSKGSPVQDAWTKTSSQQQQRSGDASSLVRVSTTSDFPKASRDLKSVSDVSLAEKMQVATEVAADILTLLMLKGYLCCMDTGFDCYVYTWNIFVF | not soluble
